Measured values as given in publication PMC9496334, “In Silico Maturation of a Nanomolar Antibody against the Human CXCR2” (Biomolecules, 2022).

T1: Biotin-labeled human CXCR2 N-terminal extracellular peptide (pepN48) (Homo sapiens, UniProt P25025, biotin label (position not given))
T1 construct: CXC chemokine receptor 2 (CXCR2, interleukin 8 receptor beta), human, the first 48 residues of the protein; Held on the streptavidin chip by its biotin; also called N-terminal peptide; peptide of extracellular N-terminal domain of human CXCR2
T1 chain: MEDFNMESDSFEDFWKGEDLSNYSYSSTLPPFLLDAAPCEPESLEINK


What was measured:
[1] = molecular target: T1, Biotin-labeled human CXCR2 N-terminal …; experiment: SPR; biotin-labeled pepN48 immobilised on a streptavidin Series S Sensor Chip SA; Biacore T200; IgG1 antibodies injected as analytes in HBS-EP+ buffer pH 7.4; kinetics fitted globally; settings: both partners purified
[2] = molecular target: T1, Biotin-labeled human CXCR2 N-terminal …; experiment: as above; settings: both partners purified

Row | Binder | Kd [1] [nM] | also measured
1 | abN48 (antibody, V domains shown, VH of abN48; constant region of the human IgG1 heavy chain, from the pFuse heavy-chain vector; VL of abN48, the same for all studied antibodies; light-chain constant region of the pFuse light-chain vector pfuse2ss-hcll2; Full-length IgG1 in the experiments; the crystal structure 6KVF holds the Fab; also called abN48 antibody; source: 293F cells, co-transfected, purified from the medium (HiTrap …)) VH: QVQLVQSGAEVKKPGSSVKVSCKASGGTLSSYAISWVRQAPGQGPEWMGWINPNSGGTNYAQKFQGRVTMTRDTSISTAYMELSRLRPDDTAVYYCASGYCSSTSCYDYWGQGTLVTVSS VL: QAVLTQPSSLSASPGASVSLTCTLRSGINVGAYRIYWYQQKPGSPPQFLLRYKSDSDKQQGSGVPSRFSGSRDASANAGILLISGLRSEDEADYYCAIWHSSAWVFGGGTQLTVL | 1.3 | –
2 | abN48-1 (antibody, V domains shown, parent VH in PDB 6KVF; constant region of the human IgG1 heavy chain, from the pFuse heavy-chain vector; as the VL of the light chain of m1; light-chain constant region of the pFuse light-chain vector pfuse2ss-hcll2; Full-length IgG1; source: 293F cells, co-transfected, purified from the medium (HiTrap Protein A)) VH: QVQLVQSGAEVKKPGSSVKVSCKASGGTLSSYAISWVRQAPGQGPEWMGWINPNSGGTNYAQKFQGRVTMTRDTSISTAYMELSRLRPDDTAVYYCASGFCTRTICFVYWGQGTLVTVSS VL: QAVLTQPSSLSASPGASVSLTCTLRSGINVGAYRIYWYQQKPGSPPQFLLRYKSDSDKQQGSGVPSRFSGSRDASANAGILLISGLRSEDEADYYCAIWHSSAWVFGGGTQLTVL | 0.26 | –
3 | abN48-3 (antibody, V domains shown, parent VH in PDB 6KVF; constant region of the human IgG1 heavy chain, from the pFuse heavy-chain vector; as the VL of the light chain of m1; light-chain constant region of the pFuse light-chain vector pfuse2ss-hcll2; Full-length IgG1; source: 293F cells, co-transfected, purified from the medium (HiTrap Protein A)) VH: QVQLVQSGAEVKKPGSSVKVSCKASGGTLSSYAISWVRQAPGQGPEWMGWINPNSGGTNYAQKFQGRVTMTRDTSISTAYMELSRLRPDDTAVYYCASGYCSFAICFDSWGQGTLVTVSS VL: QAVLTQPSSLSASPGASVSLTCTLRSGINVGAYRIYWYQQKPGSPPQFLLRYKSDSDKQQGSGVPSRFSGSRDASANAGILLISGLRSEDEADYYCAIWHSSAWVFGGGTQLTVL | 2 | –
4 | abN48-2 (antibody, V domains shown, VH of abN48-2: as the VH of m1 with two serines of CDR3 changed to arginines; parent VH in PDB 6KVF; constant region of the human IgG1 heavy chain, from the pFuse heavy-chain vector; as the VL of the light chain of m1; light-chain constant region of the pFuse light-chain vector pfuse2ss-hcll2; Full-length IgG1; source: 293F cells, co-transfected, purified from the medium (HiTrap Protein A)) VH: QVQLVQSGAEVKKPGSSVKVSCKASGGTLSSYAISWVRQAPGQGPEWMGWINPNSGGTNYAQKFQGRVTMTRDTSISTAYMELSRLRPDDTAVYYCASGYCSRTRCYDYWGQGTLVTVSS VL: QAVLTQPSSLSASPGASVSLTCTLRSGINVGAYRIYWYQQKPGSPPQFLLRYKSDSDKQQGSGVPSRFSGSRDASANAGILLISGLRSEDEADYYCAIWHSSAWVFGGGTQLTVL | – | Kd [2]: 0.11 nM; koff [2]: 0.00027 s⁻¹; kon [2]: 2.5e+06 M⁻¹ s⁻¹
5 | abN48-8 (antibody, V domains shown, parent VH in PDB 6KVF; constant region of the human IgG1 heavy chain, from the pFuse heavy-chain vector; as the VL of the light chain of m1; light-chain constant region of the pFuse light-chain vector pfuse2ss-hcll2; Full-length IgG1; source: 293F cells, co-transfected, purified from the medium (HiTrap Protein A)) VH: QVQLVQSGAEVKKPGSSVKVSCKASGGTLSSYAISWVRQAPGQGPEWMGWINPNSGGTNYAQKFQGRVTMTRDTSISTAYMELSRLRPDDTAVYYCASGYCNRTRCYDHWGQGTLVTVSS VL: QAVLTQPSSLSASPGASVSLTCTLRSGINVGAYRIYWYQQKPGSPPQFLLRYKSDSDKQQGSGVPSRFSGSRDASANAGILLISGLRSEDEADYYCAIWHSSAWVFGGGTQLTVL | 0.83 | –

The next lines start with results.

Row | Kd [1] [nM] | Binder | also measured
6 | 0.27 | abN48-10 (antibody, V domains shown, parent VH in PDB 6KVF; constant region of the human IgG1 heavy chain, from the pFuse heavy-chain vector; as the VL of the light chain of m1; light-chain constant region of the pFuse light-chain vector pfuse2ss-hcll2; Full-length IgG1; source: 293F cells, co-transfected, purified from the medium (HiTrap Protein A)) VH: QVQLVQSGAEVKKPGSSVKVSCKASGGTLSSYAISWVRQAPGQGPEWMGWINPNSGGTNYAQKFQGRVTMTRDTSISTAYMELSRLRPDDTAVYYCASGYCSRFNCKDYWGQGTLVTVSS VL: QAVLTQPSSLSASPGASVSLTCTLRSGINVGAYRIYWYQQKPGSPPQFLLRYKSDSDKQQGSGVPSRFSGSRDASANAGILLISGLRSEDEADYYCAIWHSSAWVFGGGTQLTVL | –
7 | 0.13 | abN48-29 (antibody, V domains shown, parent VH in PDB 6KVF; constant region of the human IgG1 heavy chain, from the pFuse heavy-chain vector; as the VL of the light chain of m1; light-chain constant region of the pFuse light-chain vector pfuse2ss-hcll2; Full-length IgG1; source: 293F cells, co-transfected, purified from the medium (HiTrap Protein A)) VH: QVQLVQSGAEVKKPGSSVKVSCKASGGTLSSYAISWVRQAPGQGPEWMGWINPNSGGTNYAQKFQGRVTMTRDTSISTAYMELSRLRPDDTAVYYCASGYCGRARCTSFWGQGTLVTVSS VL: QAVLTQPSSLSASPGASVSLTCTLRSGINVGAYRIYWYQQKPGSPPQFLLRYKSDSDKQQGSGVPSRFSGSRDASANAGILLISGLRSEDEADYYCAIWHSSAWVFGGGTQLTVL | –
8 | 0.65 | abN48-28 (antibody, V domains shown, parent VH in PDB 6KVF; constant region of the human IgG1 heavy chain, from the pFuse heavy-chain vector; as the VL of the light chain of m1; light-chain constant region of the pFuse light-chain vector pfuse2ss-hcll2; Full-length IgG1; source: 293F cells, co-transfected, purified from the medium (HiTrap Protein A)) VH: QVQLVQSGAEVKKPGSSVKVSCKASGGTLSSYAISWVRQAPGQGPEWMGWINPNSGGTNYAQKFQGRVTMTRDTSISTAYMELSRLRPDDTAVYYCASGYCSPSGCYVYWGQGTLVTVSS VL: QAVLTQPSSLSASPGASVSLTCTLRSGINVGAYRIYWYQQKPGSPPQFLLRYKSDSDKQQGSGVPSRFSGSRDASANAGILLISGLRSEDEADYYCAIWHSSAWVFGGGTQLTVL | –
9 | 0.23 | abN48-38 (antibody, V domains shown, parent VH in PDB 6KVF; constant region of the human IgG1 heavy chain, from the pFuse heavy-chain vector; as the VL of the light chain of m1; light-chain constant region of the pFuse light-chain vector pfuse2ss-hcll2; Full-length IgG1; source: 293F cells, co-transfected, purified from the medium (HiTrap Protein A)) VH: QVQLVQSGAEVKKPGSSVKVSCKASGGTLSSYAISWVRQAPGQGPEWMGWINPNSGGTNYAQKFQGRVTMTRDTSISTAYMELSRLRPDDTAVYYCASGYCSRSRCYDYWGQGTLVTVSS VL: QAVLTQPSSLSASPGASVSLTCTLRSGINVGAYRIYWYQQKPGSPPQFLLRYKSDSDKQQGSGVPSRFSGSRDASANAGILLISGLRSEDEADYYCAIWHSSAWVFGGGTQLTVL | –
